This note sets out measurements from publication PMC4225554.

Where only a bound is given, the exact number is not on record here.

The target in assay [1] is RD1-MART1 single-chain TCR, yeast-displayed (human). Put plainly: flow cytometry on cells. Background: In flow cytometry, cells or beads pass a laser one at a time.
Assay [2] has as its target RD1-MART1^HIGH single-chain TCR, yeast-displayed (human). The assay can be described thus: flow cytometry on cells.

By EC50 is commonly meant the concentration needed to bring the measured effect to its halfway point. A high value points to weaker potency. “MART1 ([…])/HLA-A2, refolded biotinylated monomer (from UniProt P61769 21-119) (peptide-MHC)”: the EC50 was more than 5000 nM in assay [1] and 52 nM in assay [2].

In assay [1], “MART1 ([…])/HLA-A2-Ig dimer (from UniProt P61769 21-119) (peptide-MHC)” showed a 50% effective concentration (EC50) of 130 nM.
